Experiment in all cases: ELISA
On the technique in general: An ELISA detects its analyte on a solid surface through an enzyme-linked reagent.

The target of test [1] is T1, CD27-moFc (UniProt P26842 20-191).
T1 sequence (looked up): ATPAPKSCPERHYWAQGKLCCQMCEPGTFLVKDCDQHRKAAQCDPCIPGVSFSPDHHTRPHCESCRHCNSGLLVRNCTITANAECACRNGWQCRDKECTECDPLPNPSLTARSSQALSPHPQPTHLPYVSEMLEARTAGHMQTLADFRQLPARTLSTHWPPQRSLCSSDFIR

The target of test [2] is CD40-huFc (UniProt P25942 21-193).
For test [3], the target named is CD40-moFc (UniProt P25942 21-193).
CD40-moFc, sequence (P25942 21-193): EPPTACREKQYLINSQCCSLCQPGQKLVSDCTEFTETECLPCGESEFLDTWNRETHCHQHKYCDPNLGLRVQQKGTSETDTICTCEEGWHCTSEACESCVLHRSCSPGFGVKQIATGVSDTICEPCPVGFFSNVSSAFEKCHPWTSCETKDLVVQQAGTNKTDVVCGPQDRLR
The target in test [4] is T2, OX40-moFc (UniProt P43489 29-214).
T2 sequence (looked up): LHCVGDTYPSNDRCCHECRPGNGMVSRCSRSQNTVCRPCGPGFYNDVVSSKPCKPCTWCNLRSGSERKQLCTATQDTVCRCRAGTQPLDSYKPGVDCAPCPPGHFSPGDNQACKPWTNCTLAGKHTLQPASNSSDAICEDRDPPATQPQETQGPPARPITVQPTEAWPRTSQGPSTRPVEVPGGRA

The text below walks through data of paper PMC8786347 (Oncoimmunology, 2022).

CD40-huFc, sequence (P25942 21-193): as the sequence (P25942 21-193) above

B1: scCD40L-scCD27L-Fc (Fc fusion, human)
chain 1: GDQNPQIAAHVISEASSKTTSVLQWAEKGYYTMSNNLVTLENGKQLTVKRQGLYYIYAQVTFCSNREASSQAPFIASLCLKSPGRFERILLRAANTHSSAKPCGQQSIHLGGVFELQPGASVFVNVTDPSQVSHGTGFTSFGLLKLGGGDQNPQIAAHVISEASSKTTSVLQWAEKGYYTMSNNLVTLENGKQLTVKRQGLYYIYAQVTFCSNREASSQAPFIASLCLKSPGRFERILLRAANTHSSAKPCGQQSIHLGGVFELQPGASVFVNVTDPSQVSHGTGFTSFGLLKLGGGDQNPQIAAHVISEASSKTTSVLQWAEKGYYTMSNNLVTLENGKQLTVKRQGLYYIYAQVTFCSNREASSQAPFIASLCLKSPGRFERILLRAANTHSSAKPCGQQSIHLGGVFELQPGASVFVNVTDPSQVSHGTGFTSFGLLKL
chain 2: SLGWDVAELQLNHTGPQQDPRLYWQGGPALGRSFLHGPELDKGQLRIHRDGIYMVHIQVTLAICSSTTASRHHPTTLAVGICSPASRSISLLRLSFHQGCTIASQRLTPLARGDTLCTNLTGTLLPSRNTDETFFGVQWVRPGGSLGWDVAELQLNHTGPQQDPRLYWQGGPALGRSFLHGPELDKGQLRIHRDGIYMVHIQVTLAICSSTTASRHHPTTLAVGICSPASRSISLLRLSFHQGCTIASQRLTPLARGDTLCTNLTGTLLPSRNTDETFFGVQWVRPGGSLGWDVAELQLNHTGPQQDPRLYWQGGPALGRSFLHGPELDKGQLRIHRDGIYMVHIQVTLAICSSTTASRHHPTTLAVGICSPASRSISLLRLSFHQGCTIASQRLTPLARGDTLCTNLTGTLLPSRNTDETFFGVQWVRP
In general, EC50 refers to the concentration needed to bring the measured effect to its halfway point. Read a high EC50 as weaker potency. Take B1: the EC50 in test [1] worked out at 0.3 nM; in test [2] it was 0.1 nM.

B2: scCD40L-scOX40L-Fc (Fc fusion, human)
chain 1: GDQNPQIAAHVISEASSKTTSVLQWAEKGYYTMSNNLVTLENGKQLTVKRQGLYYIYAQVTFCSNREASSQAPFIASLCLKSPGRFERILLRAANTHSSAKPCGQQSIHLGGVFELQPGASVFVNVTDPSQVSHGTGFTSFGLLKLGGGDQNPQIAAHVISEASSKTTSVLQWAEKGYYTMSNNLVTLENGKQLTVKRQGLYYIYAQVTFCSNREASSQAPFIASLCLKSPGRFERILLRAANTHSSAKPCGQQSIHLGGVFELQPGASVFVNVTDPSQVSHGTGFTSFGLLKLGGGDQNPQIAAHVISEASSKTTSVLQWAEKGYYTMSNNLVTLENGKQLTVKRQGLYYIYAQVTFCSNREASSQAPFIASLCLKSPGRFERILLRAANTHSSAKPCGQQSIHLGGVFELQPGASVFVNVTDPSQVSHGTGFTSFGLLKL
chain 2: QVSHRYPRIQSIKVQFTEYKKEKGFILTSQKEDEIMKVQNNSVIINCDGFYLISLKGYFSQEVNISLHYQKDEEPLFQLKKVRSVNSLMVASLTYKDKVYLNVTTDNTSLDDFHVNGGELILIHQNPGEFCVLGGGGSGGGGSGGGGSQVSHRYPRIQSIKVQFTEYKKEKGFILTSQKEDEIMKVQNNSVIINCDGFYLISLKGYFSQEVNISLHYQKDEEPLFQLKKVRSVNSLMVASLTYKDKVYLNVTTDNTSLDDFHVNGGELILIHQNPGEFCVLGGGGSGGGGSGGGGSQVSHRYPRIQSIKVQFTEYKKEKGFILTSQKEDEIMKVQNNSVIINCDGFYLISLKGYFSQEVNISLHYQKDEEPLFQLKKVRSVNSLMVASLTYKDKVYLNVTTDNTSLDDFHVNGGELILIHQNPGEFCVL
For B2, the figures for the EC50 in test [3], in test [4] and in test [2] were 0.3 nM, 0.2 nM and 0.5 nM, respectively.
